In patent publication US20110195849A1 (DUKE UNIVERSITY, published 2011):

Columns and labels:
[1] = target: T1, MutSβ (MSH2-MSH3) (human, UniProt P43246 2-934; P20585 1-1137); test: SPRS, MutLα-MutSβ-DNA ternary complex
T1 construct: mature;range 1-1137; Recombinant heterodimer from baculovirus-infected Sf9 cells; 232 kDa; also called wild type MutSβ; MSH2-MSH3 heterodimer

[2] = target: T1, MutSβ (MSH2-MSH3); test: SPRS, MutLα varied with 0.10 µM MutSβ on heteroduplex DNA, 1 mM ATP
Description: MutSβ PIP box mutants are defective in MutLα interaction—Interaction between MutS and MutL homologs has been documented in several systems (3, 4), but the nature of the human MutLα-MutSβ complex has not been addressed. We have therefore used SPRS to examine the capacity of MutSβ and its PIP box mutants to support formation of a MutLα-MutSβ-DNA ternary complex. With reference to FIG. 2A, ATP-dependent assembly of the MutLα-MutSβ-DNA ternary complex was scored by SPRS using a 200 bp -TG- I/D heteroduplex (solid lines) or homoduplex (dashed lines) DNA. […] Similar analyses were performed with MutSβΔ28 (middle panel) and MutSβ-F27A-F28A. […] This mass increase was not observed in the absence of ATP (not shown), and we were unable to detect DNA binding by MutLα alone (not shown). The latter results are consistent with previous findings that assembly of ternary complexes involving MutL and MutS homologs is ATP-dependent and that DNA binding by MutL homologs is limited at physiological ionic strength (17, 25, 35-38). The lifetime of the ternary complex is also short, with 80% dissociating with a t_{1/2} of 7s. […] Complex formation on homoduplex DNA (open symbols) was not saturable.

T1 sequence (P43246 2-934 limits assumed, chain 1 of 2): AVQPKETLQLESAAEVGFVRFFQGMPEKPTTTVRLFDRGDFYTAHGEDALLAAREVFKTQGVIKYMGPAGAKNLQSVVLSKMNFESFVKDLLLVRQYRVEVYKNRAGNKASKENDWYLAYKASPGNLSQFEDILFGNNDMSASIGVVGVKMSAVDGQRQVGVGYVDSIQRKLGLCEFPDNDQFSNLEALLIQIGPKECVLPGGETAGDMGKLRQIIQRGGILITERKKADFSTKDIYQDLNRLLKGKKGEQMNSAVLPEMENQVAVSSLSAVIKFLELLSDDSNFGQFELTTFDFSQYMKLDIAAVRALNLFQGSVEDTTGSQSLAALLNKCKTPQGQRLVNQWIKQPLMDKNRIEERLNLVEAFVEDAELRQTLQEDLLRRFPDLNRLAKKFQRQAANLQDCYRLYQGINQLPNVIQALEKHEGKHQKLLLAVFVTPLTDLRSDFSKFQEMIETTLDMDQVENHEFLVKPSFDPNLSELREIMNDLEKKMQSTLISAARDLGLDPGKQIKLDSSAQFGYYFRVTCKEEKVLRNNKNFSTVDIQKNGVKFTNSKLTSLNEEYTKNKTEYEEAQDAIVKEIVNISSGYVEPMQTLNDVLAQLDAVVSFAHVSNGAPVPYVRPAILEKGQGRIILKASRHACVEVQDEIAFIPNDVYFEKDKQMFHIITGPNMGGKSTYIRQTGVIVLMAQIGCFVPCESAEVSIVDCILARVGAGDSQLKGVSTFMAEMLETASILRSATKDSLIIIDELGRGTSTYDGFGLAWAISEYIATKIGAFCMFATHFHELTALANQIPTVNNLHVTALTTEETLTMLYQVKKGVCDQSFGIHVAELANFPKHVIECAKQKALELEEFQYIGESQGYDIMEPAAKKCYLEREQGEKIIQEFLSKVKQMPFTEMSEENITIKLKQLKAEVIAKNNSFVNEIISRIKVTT
T1 sequence (P20585 whole entry, chain 2 of 2): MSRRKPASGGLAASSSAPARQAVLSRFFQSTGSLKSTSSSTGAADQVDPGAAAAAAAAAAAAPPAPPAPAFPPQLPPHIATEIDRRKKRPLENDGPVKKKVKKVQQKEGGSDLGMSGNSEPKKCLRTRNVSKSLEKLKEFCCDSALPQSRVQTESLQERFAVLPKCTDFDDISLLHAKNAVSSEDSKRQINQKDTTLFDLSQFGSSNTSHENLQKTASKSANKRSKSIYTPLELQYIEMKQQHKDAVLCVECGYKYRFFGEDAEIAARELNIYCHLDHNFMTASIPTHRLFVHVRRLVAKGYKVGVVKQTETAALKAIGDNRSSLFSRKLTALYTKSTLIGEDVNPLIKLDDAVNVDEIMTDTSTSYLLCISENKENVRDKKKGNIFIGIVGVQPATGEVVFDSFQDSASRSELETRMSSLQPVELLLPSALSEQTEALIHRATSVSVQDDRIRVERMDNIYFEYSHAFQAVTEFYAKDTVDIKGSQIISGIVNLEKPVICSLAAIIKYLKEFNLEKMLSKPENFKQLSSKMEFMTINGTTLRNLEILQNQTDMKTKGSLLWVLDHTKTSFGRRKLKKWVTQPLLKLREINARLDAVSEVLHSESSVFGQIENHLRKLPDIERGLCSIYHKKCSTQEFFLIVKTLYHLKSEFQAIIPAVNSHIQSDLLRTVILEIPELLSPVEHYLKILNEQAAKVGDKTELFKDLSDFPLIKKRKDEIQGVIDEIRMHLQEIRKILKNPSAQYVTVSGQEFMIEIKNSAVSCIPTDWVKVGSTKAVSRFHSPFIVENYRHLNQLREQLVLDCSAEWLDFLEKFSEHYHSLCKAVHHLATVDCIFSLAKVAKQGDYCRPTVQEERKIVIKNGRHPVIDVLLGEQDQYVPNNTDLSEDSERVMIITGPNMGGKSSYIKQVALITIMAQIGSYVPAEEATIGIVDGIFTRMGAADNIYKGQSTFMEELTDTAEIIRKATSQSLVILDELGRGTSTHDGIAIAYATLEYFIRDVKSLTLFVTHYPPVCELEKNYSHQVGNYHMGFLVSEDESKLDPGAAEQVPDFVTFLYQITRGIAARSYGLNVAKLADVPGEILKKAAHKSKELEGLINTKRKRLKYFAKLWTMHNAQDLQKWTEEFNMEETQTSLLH

B1: MutLα (MLH1-PMS2) (enzyme, human)
chain 1: MSFVAGVIRRLDETVVNRIAAGEVIQRPANAIKEMIENCLDAKSTSIQVIVKEGGLKLIQIQDNGTGIRKEDLDIVCERFTTSKLQSFEDLASISTYGFRGEALASISHVAHVTITTKTADGKCAYRASYSDGKLKAPPKPCAGNQGTQITVEDLFYNIATRRKALKNPSEEYGKILEVVGRYSVHNAGISFSVKKQGETVADVRTLPNASTVDNIRSIFGNAVSRELIEIGCEDKTLAFKMNGYISNANYSVKKCIFLLFINHRLVESTSLRKAIETVYAAYLPKNTHPFLYLSLEISPQNVDVNVHPTKHEVHFLHEESILERVQQHIESKLLGSNSSRMYFTQTLLPGLAGPSGEMVKSTTSLTSSSTSGSSDKVYAHQMVRTDSREQKLDAFLQPLSKPLSSQPQAIVTEDKTDISSGRARQQDEEMLELPAPAEVAAKNQSLEGDTTKGTSEMSEKRGPTSSNPRKRHREDSDVEMVEDDSRKEMTAACTPRRRIINLTSVLSLQEEINEQGHEVLREMLHNHSFVGCVNPQWALAQHQTKLYLLNTTKLSEELFYQILIYDFANFGVLRLSEPAPLFDLAMLALDSPESGWTEEDGPKEGLAEYIVEFLKKKAEMLADYFSLEIDEEGNLIGLPLLIDNYVPPLEGLPIFILRLATEVNWDEEKECFESLSKECAMFYSIRKQYISEESTLSGQQSEVPGSIPNSWKWTVEHIVYKALRSHILPPKHFTEDGNILQLANLPDLYKVFERC
chain 2: MERAESSSTEPAKAIKPIDRKSVHQICSGQVVLSLSTAVKELVENSLDAGATNIDLKLKDYGVDLIEVSDNGCGVEEENFEGLTLKHHTSKIQEFADLTQVETFGFRGEALSSLCALSDVTISTCHASAKVGTRLMFDHNGKIIQKTPYPRPRGTTVSVQQLFSTLPVRHKEFQRNIKKEYAKMVQVLHAYCIISAGIRVSCTNQLGQGKRQPVVCTGGSPSIKENIGSVFGQKQLQSLIPFVQLPPSDSVCEEYGLSCSDALHNLFYISGFISQCTHGVGRSSTDRQFFFINRRPCDPAKVCRLVNEVYHMYNRHQYPFVVLNISVDSECVDINVTPDKRQILLQEEKLLLAVLKTSLIGMFDSDVNKLNVSQQPLLDVEGNLIKMHAADLEKPMVEKQDQSPSLRTGEEKKDVSISRLREAFSLRHTTENKPHSPKTPEPRRSPLGQKRGMLSSSTSGAISDKGVLRPQKEAVSSSHGPSDPTDRAEVEKDSGHGSTSVDSEGFSIPDTGSHCSSEYAASSPGDRGSQEHVDSQEKAPKTDDSFSDVDCHSNQEDTGCKFRVLPQPTNLATPNTKRFKKEEILSSSDICQKLVNTQDMSASQVDVAVKINKKVVPLDFSMSSLAKRIKQLHHEAQQSEGEQNYRKFRAKICPGENQAAEDELRKEISKTMFAEMEIIGQFNLGFIITKLNEDIFIVDQHATDEKYNFEMLQQHTVLQGQRLIAPQTLNLTAVNEAVLIENLEIFRKNGFDFVIDENAPVTERAKLISLPTSKNWTFGPQDVDELIFMLSDSPGVMCRPSRVKQMFASRACRKSVMIGTALNTSEMKKLITHMGEMDHPWNCPHGRPTMRHIANLGVISQN
notes: Purified as in Iyer et al. (21)
t1/2 of dissociation of the ternary complex [1]: 7 s | Kd [2]: 400 nM
